Patent US20240245796A1 (PROFOUNDBIO US, published 2024)

B1: F131 (antibody, V domains shown)
VH: EVQLLESGGGVVQPGRSLRLSCAASGFTFSSYGMHWVRQAPGKGLEWVAVISYDGSNKYYADSVKGRFTISRANSKNTLYLQMNSLRAEDTAVYYCARPRAYYGAYGSSFDYWGQGTQVTVSS
VL: EIVMTQSPSSVSASVGDRVAITCRASQGISSWLAWYQQKPGKAPKLLIYAASSLQSGVPSRFSGSGSGTDFTLTISSLQPEDFATYYCQQSYSTPLTFGGGTKVDIK
notes: also called clone F131; F131 mAb
B2: F131-LD038 (antibody, V domains shown)
VH: B1 VH
VL: B1 VL
modifications: drug-linker LD038 (PB038, maleimide-PEG unit-Val-Cit-PAB-exatecan) on cysteines freed by TCEP reduction; positions not given
notes: Antibody-drug conjugate of F131 (IgG1) with LD038; also called anti-huFOLR-1 conjugate F131-LD038; F131-038

How the values were obtained:
[1] = molecular target: T1, human FOLR1 extracellular domain linked to His tag (human, UniProt P15328 25-233, limits assumed); assay: BLI, global 1:1 fit (125 nM row)
T1 construct: extracellular domain; It may be the same product as m13; also called Hu-FRα; Hu-Ag; not shown: His tag

[2] = molecular target: T2, human FOLR2 extracellular domain linked to His tag (human, UniProt P14207 17-230, limits assumed); assay: BLI, global 1:1 fit (125 nM row)
T2 construct: extracellular domain; Antigen in solution in BLI; also called Hu-FRb; not shown: His tag

[3] = molecular target: T1, human FOLR1 extracellular domain linked …; assay: BLI, global 1:1 fit (500 nM row)
[4] = molecular target: T2, human FOLR2 extracellular domain linked …; assay: BLI, global 1:1 fit (500 nM row)
[5] = molecular target: T1, human FOLR1 extracellular domain linked …; assay: BLI, global 1:1 fit (31.3 nM row)
[6] = molecular target: T2, human FOLR2 extracellular domain linked …; assay: BLI, global 1:1 fit (31.3 nM row)
[7] = molecular target: T1, human FOLR1 extracellular domain linked …; assay: BLI, global 1:1 fit (7.82 nM row)
[8] = molecular target: T3, human FOLR1 protein, His Tag (ACRO FO1-H52H1) (human, UniProt P15328 25-233); assay: ELISA, coated hFOLR1-His, supernatant 1x
T3 construct: Bought protein coated on ELISA plates; not shown: His tag

[9] = molecular target: T3, human FOLR1 protein, His Tag (ACRO …); assay: ELISA, coated hFOLR1-His, supernatant 5x
[10] = molecular target: T3, human FOLR1 protein, His Tag (ACRO …); assay: ELISA, coated hFOLR1-His, supernatant 25x
[11] = molecular target: T1, human FOLR1 extracellular domain linked …; assay: BLI, Ag 7.82 nM over Ab on anti-hIgG Fc tip
[12] = molecular target: T4, cynomolgus monkey FOLR1 extracellular domain linked to His tag (cynomolgus monkey, UniProt A0A2K5U044 25-233); assay: BLI, Ag 7.82 nM over Ab on anti-hIgG Fc tip
T4 construct: extracellular domain; Antigen in solution in BLI; It may be the same product as m14; also called Cyno-Ag; not shown: His tag

[13] = molecular target: T3, human FOLR1 protein, His Tag (ACRO …); assay: ELISA, coated hFOLR1-His, HEK293 supernatant
[14] = molecular target: T5, cynomolgus FOLR1 protein, His Tag (ACRO F01-C52H8) (cynomolgus, UniProt A0A2K5U044 25-233); assay: ELISA, coated cyno FOLR1-His, supernatant 1x
T5 construct: Bought protein coated on ELISA plates; also called Cynomolgus/Rhesus macaque FOLR1, Protein, His Tag; not shown: His tag

[15] = molecular target: T5, cynomolgus FOLR1 protein, His Tag (ACRO …); assay: ELISA, coated cyno FOLR1-His, supernatant 5x
[16] = molecular target: T5, cynomolgus FOLR1 protein, His Tag (ACRO …); assay: ELISA, coated cyno FOLR1-His, supernatant 25x
[17] = molecular target: T6, rat FOLR1 extracellular domain linked to His tag (rat); assay: BLI, Ag 15.6 nM; * = below range of quantification
T6 construct: extracellular domain; Antigen in solution in BLI; also called Rat-Ag

[18] = molecular target: T3, human FOLR1 protein, His Tag (ACRO …); assay: ratio of OD450 on hFOLR1 to OD450 on anti-human IgG Fc
[19] = molecular target: T6, rat FOLR1 extracellular domain linked …; assay: BLI, global 1:1 fit (62.5 nM row); all responses below quantification
[20] = molecular target: T1, human FOLR1 extracellular domain linked …; assay: BLI, global 1:1 fit (500 nM row); Table 11 run (FOLR family panel, Hu-FRα)
[21] = molecular target: T1, human FOLR1 extracellular domain linked …; assay: BLI, global 1:1 fit (500 nM row); Table 12 run (species FOLR α panel, Hu-Ag)
[22] = molecular target: T7, mouse FOLR1 extracellular domain linked to His tag (mouse, UniProt P35846 25-232, limits assumed); assay: BLI, global 1:1 fit (500 nM row); only the 500 nM response quantifiable; only the 500 nM response quantifiable; R^2 0.6807
T7 construct: extracellular domain; Antigen in solution in BLI; also called Mouse-Ag; not shown: His tag
T7 sequence (P35846 25-232 limits assumed): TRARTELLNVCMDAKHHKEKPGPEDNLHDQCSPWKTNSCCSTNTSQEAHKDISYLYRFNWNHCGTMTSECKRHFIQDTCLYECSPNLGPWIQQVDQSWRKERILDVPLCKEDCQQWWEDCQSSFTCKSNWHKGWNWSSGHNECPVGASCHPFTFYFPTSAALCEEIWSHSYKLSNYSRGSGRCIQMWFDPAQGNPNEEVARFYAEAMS

T2 sequence (P14207 17-230 limits assumed): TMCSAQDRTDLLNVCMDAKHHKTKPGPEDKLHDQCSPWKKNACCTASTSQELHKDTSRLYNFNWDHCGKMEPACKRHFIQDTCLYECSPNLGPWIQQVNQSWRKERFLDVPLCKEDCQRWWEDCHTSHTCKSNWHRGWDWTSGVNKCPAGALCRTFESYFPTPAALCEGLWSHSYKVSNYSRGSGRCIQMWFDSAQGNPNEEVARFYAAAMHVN
T5 sequence (A0A2K5U044 entry or part of it): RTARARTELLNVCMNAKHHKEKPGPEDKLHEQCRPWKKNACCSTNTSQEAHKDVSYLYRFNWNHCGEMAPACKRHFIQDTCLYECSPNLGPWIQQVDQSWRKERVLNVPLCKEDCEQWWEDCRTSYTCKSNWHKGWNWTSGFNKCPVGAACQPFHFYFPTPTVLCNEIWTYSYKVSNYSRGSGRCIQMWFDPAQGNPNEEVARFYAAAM
T3 sequence (P15328 25-233 limits assumed): as the sequence (A0A2K5U044 entry or part of it) above, with T2I, R4W, K37R, P146A, Y171H counted along it
T1 sequence (P15328 25-233 limits assumed): as the sequence (A0A2K5U044 entry or part of it) above, with T2I, R4W, K37R, P146A, Y171H counted along it
T4 sequence (A0A2K5U044 entry or part of it): as the sequence (A0A2K5U044 entry or part of it) above

Binder | Kd [1] [nM] | koff [1] [s⁻¹] | kon [1] [M⁻¹ s⁻¹] | Kd [2] [nM] | koff [2] [s⁻¹] | kon [2] [M⁻¹ s⁻¹] | koff [3] [s⁻¹] | kon [3] [M⁻¹ s⁻¹] | Kd [4] [nM] | koff [4] [s⁻¹] | kon [4] [M⁻¹ s⁻¹] | Kd [5] [nM] | koff [5] [s⁻¹] | kon [5] [M⁻¹ s⁻¹] | Kd [6] [nM] | koff [6] [s⁻¹] | kon [6] [M⁻¹ s⁻¹] | Kd [7] [nM] | koff [7] [s⁻¹] | kon [7] [M⁻¹ s⁻¹] | other results
B1 | 5.3 | 0.0012 | 226000 | 142 | 0.0784 | 552000 | 0.0012 | 226000 | 142 | 0.0784 | 552000 | 5.3 | 0.0012 | 226000 | 142 | 0.0784 | 552000 | 1.53 | 0.000338 | 221000 | OD450 [8]: 1.61 OD450; OD450 [9]: 1.52 OD450; OD450 [10]: 1.38 OD450; Response [11]: 0.04; Response [12]: 0.0537; OD450 [13]: 2.35 OD450; OD450 [14]: 1.2 OD450; OD450 [15]: 1.27 OD450; OD450 [16]: 1.09 OD450; Response [17]: -0.00395; Target binding/IgG level [18]: 1.02; koff [19]: 1.03 s⁻¹; kon [19]: 5490 M⁻¹ s⁻¹; Kd [20]: 5.3 nM; Kd [21]: 1.53 nM; Kd [22]: 2960 nM
B2 | 4.79 | 0.00121 | 252000 | 84.4 | 0.0813 | 963000 | 0.00121 | 252000 | 84.4 | 0.0813 | 963000 | 4.79 | 0.00121 | 252000 | 84.4 | 0.0813 | 963000 | 4.8 | 0.00107 | 224000 | Kd [3]: 4.79 nM; Response [11]: 0.0342; Response [12]: 0.0225; Response [17]: -0.00212; koff [19]: 0.224 s⁻¹; kon [19]: 2.64e+06 M⁻¹ s⁻¹
